Measurements: PMC12098869, “An mRNA-display derived cyclic peptide scaffold reveals the substrate binding interactions of an N-terminal cysteine oxidase” (Nature Communications, 2025)
Values joined by “and” are separate entries in the source; they are usually repeats but may differ in a detail not shown here. Equal entries are not always repeated. Where two headings read alike, the source gives them in different places. Where a SMILES comes first, the peptide text is derived from it. Bridges are numbered along the chain shown (N, C = ends). Where no end group is shown, it is not given here. Side-chain parts run from the residue outwards. [ ]: non-standard residue; d: D form. Dap = NC[C@H](N)C(=O)O

Assays:
human ADO [1] = target: T1, human ADO (Homo sapiens, UniProt Q96SZ5); assay: SPR single-cycle kinetic (SCK) binding of cyclic peptides to ADO; details: 1:1 binding model, 4 °C, geometric mean of a minimum of three independent measurements (n = 3) with standard error
T1 construct: Full-length human ADO (Uniprot ID: Q96SZ5) was cloned; made in house; host or cells: E. coli Rosetta2(DE3)
T1 sequence (Q96SZ5 1-270): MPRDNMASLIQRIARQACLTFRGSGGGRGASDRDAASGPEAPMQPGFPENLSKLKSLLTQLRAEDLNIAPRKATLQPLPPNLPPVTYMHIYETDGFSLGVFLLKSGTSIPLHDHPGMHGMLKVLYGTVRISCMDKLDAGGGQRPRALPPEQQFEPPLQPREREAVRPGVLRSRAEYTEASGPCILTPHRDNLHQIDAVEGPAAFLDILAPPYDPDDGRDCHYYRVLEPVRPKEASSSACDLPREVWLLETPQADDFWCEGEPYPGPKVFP
From the text: After six cycles, clear enrichment of several CPs was observed by next-generation sequencing. The most enriched CPs (CP1-8, numbered according to their percentage enrichment in the final selection round) were selected for subsequent analysis (Table 1). CP1, 5, 6 and 7 are related in sequence, while CP2, 3, 4, and 8 are unique compositions (Fig. 1b). These CPs were subsequently produced by solid-phase peptide synthesis (SPPS) and analysed by surface plasmon resonance (SPR) using single cycle kinetic (SCK) analysis to confirm and quantify binding to ADO. ADO could interact with each CP to varying degrees (Supplementary Fig. 4, Table 1, Fig. 1dleft).
SPR measurements were made using a Biacore T200 (Cytiva) instrument and data were analysed using the Biacore Insight Evaluation Software. Biotinylated-ADO was immobilised on a Biotin CAP chip (Cytiva) with a target density of ∼2500–3000 RU and peptide/protein substrates were injected over the chip. Experiments were conducted at 4 °C using both multi-cycle (fit using the equilibrium steady state affinity 1:1 binding model) and single-cycle kinetics mode (fit using a 1:1 binding model). A buffer comprising 20 mM HEPES pH 7.5, 500 mM NaCl, 10 mM DTT, and 0.1% (v/v) tween-20 was used as the running buffer at a flow rate of 50 μL/minute.

human ADO [2] = target: T1, human ADO; assay: ADO activity inhibition assay (RGS5_2-15 oxidation monitored by LCMS): single-dose and IC50; type: biochemical
Method: We next tested the ability of the CPs to inhibit ADO activity. ADO activity was measured with and without 10 μM of each CP using an established stopped assay in which the oxidation of a representative substrate (RGS5_2-15; a synthetic peptide corresponding to the methionine excised N-terminus of RGS5, residues 2 to 15) was monitored by liquid chromatography coupled mass spectrometry (LCMS)[7],[35],[36].
The enzymatic activity of ADO was examined by incubating between 0–1000 μM peptide substrates with 0.1 μM ADO in a bench-top thermomixer at 37 °C for 45 seconds. Otherwise stated, the reaction buffer contained 50 mM Tris pH 7.5, 50 mM NaCl, and 5 mM TCEP. The reactions were quenched by mixing the sample 1:10 with 1% formic acid (v/v).
Peptide samples were injected onto a Chromolith® RP-18 Endcapped HPLC Columns (100–2 mm; Merck), heated to 40 °C and eluted at 0.3 ml/min using a gradient of 95% deionised water supplemented with 0.1% (v/v) formic acid to 95% acetonitrile. Oxidation was monitored by an ultra-high-performance liquid chromatography (UHPLC) mass spectrometry (MS) using ExionLC AD (Sciex) and SelexION (Sciex) mass spectrometer operated in a positive electrospray time-of-flight ( + ESI-TOF) mode. Instrument parameters, data acquisition and data processing were controlled by Analyst software (Sciex). The peptide data processing was performed using Skyline software. Turnover was quantified by comparing the areas underneath the product and substrate ions extracted from the total ion current chromatogram. All figures and parameters were generated using GraphPad Prism 9.

[3] = target: ADO-D206N, biotinylated (pQE80L-Navi-ADO) (human) (UniProt Q96SZ5); assay: SPR; single-cycle kinetics (SCK), 1:1 binding model; biotinylated ADO or variant immobilised on a Biotin CAP chip, peptide injected at 25.6, 64, 160, 400, 1000 nM; 4 °C; 20 mM HEPES pH 7.5, 500 mM NaCl, 10 mM DTT, 0.1% (v/v) tween-20; 50 μL/minute
[4] = target: 2-aminoethanethiol dioxygenase (ADO), wild type, biotinylated (pQE80L-Navi-ADO) (human); assay: SPR; multi-cycle, equilibrium steady state affinity 1:1 binding model; biotinylated ADO or variant immobilised on a Biotin CAP chip (~2500-3000 RU), peptide injected; 4 °C; 20 mM HEPES pH 7.5, 500 mM NaCl, 10 mM DTT, 0.1% (v/v) tween-20; 50 μL/minute
[5] = target: T2, 2-aminoethanethiol dioxygenase (ADO), full-length human, N-terminally His-tagged and biotinylated … (human, UniProt Q96SZ5 1-270, biotin (biotinylated during expression, 0.2 mM biotin added)); assay: SPR; single-cycle kinetics (1:1 binding model); biotinylated ADO immobilised on a Biotin CAP chip (~2500-3000 RU), cyclic peptide injected; Biacore T200, 4 °C; 20 mM HEPES pH 7.5, 500 mM NaCl, 10 mM DTT, 0.1% tween-20; 50 µL/minute; each cell is one of three independent measurements; details: both partners purified
T2 construct: 2-aminoethanethiol dioxygenase (ADO), human, UniProt Q96SZ5, full length; Immobilised through its biotin on a Biotin CAP chip for SPR; also called wild type ADO; Biotinylated-ADO; source: E. coli Rosetta2(DE3), purified (Ni-NTA, SEC); not shown: biotinylation tag (from the vector pQE80L-Navi), N-terminal, kept
T2 sequence (looked up): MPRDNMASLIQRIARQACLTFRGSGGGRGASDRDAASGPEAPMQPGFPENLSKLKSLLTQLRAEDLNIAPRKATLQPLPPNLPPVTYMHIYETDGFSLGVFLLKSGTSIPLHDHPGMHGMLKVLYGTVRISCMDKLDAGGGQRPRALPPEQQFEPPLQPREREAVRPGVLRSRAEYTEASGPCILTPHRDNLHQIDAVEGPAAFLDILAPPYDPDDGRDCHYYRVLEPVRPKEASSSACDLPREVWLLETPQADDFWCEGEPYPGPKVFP
In short: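 Cyclic peptides were run over biotinylated, His-tagged full-length human ADO that had been expressed in E. coli, purified by nickel affinity and gel filtration, and captured on a Biotin CAP chip (about 2500–3000 RU) in a Biacore T200. Flow was 50 µL/minute at 4 °C in HEPES pH 7.5 buffer with 500 mM NaCl, DTT and tween-20. Kd values come from 1:1 fits of single-cycle kinetic sensorgrams across three independent measurements.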

[6] = target: ADO with a change in F101 (ADO-F101) (human) (UniProt Q96SZ5); assay: SPR; biotinylated ADO (wild type or mutant) immobilised on a Biotin CAP chip, substrate peptides injected; 4 °C; 20 mM HEPES pH 7.5, 500 mM NaCl, 10 mM DTT, 0.1% tween-20; multi-cycle or single-cycle mode not given
[7] = target: ADO with a change in Y212 (ADO-Y212) (human) (UniProt Q96SZ5); assay: as above
[8] = target: T3, 2-aminoethanethiol dioxygenase (ADO), full-length human, N-terminally His-tagged and biotinylated … (human, UniProt Q96SZ5 1-270, biotin (biotinylated during expression, 0.2 mM biotin added)); assay: SPR; single cycle kinetic (SCK) analysis, 1:1 binding model; biotinylated ADO immobilised on a Biotin CAP chip (~2500-3000 RU), cyclic peptides injected; 4 °C; 20 mM HEPES pH 7.5, 500 mM NaCl, 10 mM DTT, 0.1% tween-20; 50 μL/minute; details: both partners purified
T3 construct: 2-aminoethanethiol dioxygenase (ADO), human, UniProt Q96SZ5, full length; Construct used for RaPID screening and all SPR experiments; No tag cleavage step is described in its purification; also called wild type ADO; biotinylated ADO; source: E. coli Rosetta2(DE3), purified (Ni-NTA, SEC); not shown: biotinylation tag (from the vector pQE80L-Navi), N-terminal, kept
T3 sequence (looked up): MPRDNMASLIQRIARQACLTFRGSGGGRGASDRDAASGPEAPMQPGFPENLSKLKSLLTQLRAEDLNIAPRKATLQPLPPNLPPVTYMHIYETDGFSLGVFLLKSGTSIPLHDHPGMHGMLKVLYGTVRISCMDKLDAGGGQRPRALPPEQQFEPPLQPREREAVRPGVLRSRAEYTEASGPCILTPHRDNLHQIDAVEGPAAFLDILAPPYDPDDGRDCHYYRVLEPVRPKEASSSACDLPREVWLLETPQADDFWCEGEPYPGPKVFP

[9] = target: T2, 2-aminoethanethiol dioxygenase (ADO), …; assay: SPR; single-cycle kinetics (1:1 binding model); biotinylated ADO immobilised on a Biotin CAP chip (~2500-3000 RU), cyclic peptide injected; Biacore T200, 4 °C; 20 mM HEPES pH 7.5, 500 mM NaCl, 10 mM DTT, 0.1% tween-20; 50 µL/minute; each cell is one of three independent measurements; details: both partners purified; remark: listed apart in the source
[10] = RGS5_2-15 substrate, LCMS, 37 °C, average of three independent experiments (n = 3), standard error, read-out: IC50

CC[C@H](C)[C@@H]1NC(=O)[C@H]([C@@H](C)O)NC(=O)CNC(=O)[C@H](CC(C)C)NC(=O)[C@H](C(C)C)NC(=O)[C@H](Cc2ccc(O)cc2)NC(=O)[C@H](Cc2ccc(O)cc2)NC(=O)[C@H](Cc2ccc(O)cc2)NC(=O)CSC[C@@H](C(N)=O)NC(=O)[C@H](Cc2ccccc2)NC(=O)[C@H](CCCNC(=N)N)NC(=O)[C@H](Cc2ccc(O)cc2)NC(=O)[C@H](CCCNC(=N)N)NC(=O)[C@H](CCCCN)NC(=O)[C@H](C(C)C)NC(=O)[C@H](CC(C)C)NC1=O [CP4] ({CH2CO}-YYYVLGTILVKRYRFC-NH2; thioether N-16)
Kd (human ADO [1]): 1300 ± 140 nM
IC50 (human ADO [2]; [10]): > 50000 nM

IL32_(2-15), synthetic peptide corresponding to the methionine excised N-terminus of IL32, residues 2-15 (from UniProt P24001 2-15)
Kd [3]: 70 nM
Kd [4]: 460 nM

CC[C@H](C)[C@@H]1NC(=O)[C@H](Cc2ccc(O)cc2)NC(=O)CSC[C@@H](C(N)=O)NC(=O)[C@H](CCC(N)=O)NC(=O)[C@H](CCCNC(=N)N)NC(=O)[C@H](Cc2c[nH]cn2)NC(=O)[C@H](CO)NC(=O)CNC(=O)[C@H](CC(C)C)NC(=O)[C@H](Cc2c[nH]c3ccccc23)NC(=O)[C@H](CO)NC(=O)[C@H]([C@@H](C)O)NC(=O)[C@H](CCCCN)NC(=O)[C@H](C(C)C)NC1=O [CP6-F6S] ({CH2CO}-YIVKTSWLGSHRQC-NH2; thioether N-14)
IC50 (human ADO [2]; as given in the legend of Fig. 2c (concentration of CP added), read-out: half-maximal inhibitory concentration (IC50)): 200 nM

RGS5_(2-15), synthetic peptide corresponding to the methionine excised N-terminus of RGS5, residues 2 to 15 (from UniProt O15539 2-15)
Kd [3]: 150 nM
Kd [4]: 640 nM

CC(C)C[C@@H]1NC(=O)[C@H](Cc2ccc(O)cc2)NC(=O)[C@H](CC(C)C)NC(=O)[C@H]([C@@H](C)O)NC(=O)[C@H](C(C)C)NC(=O)[C@H](CC(C)C)NC(=O)[C@H](CC(C)C)NC(=O)[C@H](Cc2ccc(O)cc2)NC(=O)CSC[C@@H](C(N)=O)NC(=O)[C@H](CO)NC(=O)[C@H](CCCNC(=N)N)NC(=O)[C@H](Cc2c[nH]cn2)NC(=O)[C@H]([C@@H](C)O)NC(=O)CNC1=O [CP7] ({CH2CO}-YLLVTLYLGTHRSC-NH2; thioether N-14)
KD (human ADO [1]): non-specific binding
IC50 (human ADO [2]; [10]): 9920 ± 290 nM

{CH2CO}-YIVKTFW[Dap]([Phe-Ser])GSHRQC (thioether N-14) [CP6-L8d-Phe-Ser, listing 1 of 2 here]
Kd [5]: 79.9 nM and 77.7 nM and 78.1 nM

CKGLAALPHSCLER
fold increase in KD relative to wild type ADO [6]: < 80 fold
fold increase in KD relative to wild type ADO [7]: < 113 fold

{CH2CO}-YIVKTFW[Dap]([Lys-Ser])GSHRQC (thioether N-14) [CP6-L8d-Lys-Ser]
Kd [8]: 490 nM

B1: Cyclic peptide CP6 (peptide)
peptide: {CH2CO}-YIVKTFWLGSHRQC-NH2
modifications: thioether N-14
SMILES: CC[C@H](C)[C@@H]1NC(=O)[C@H](Cc2ccc(O)cc2)NC(=O)CSC[C@@H](C(N)=O)NC(=O)[C@H](CCC(N)=O)NC(=O)[C@H](CCCNC(=N)N)NC(=O)[C@H](Cc2c[nH]cn2)NC(=O)[C@H](CO)NC(=O)CNC(=O)[C@H](CC(C)C)NC(=O)[C@H](Cc2c[nH]c3ccccc23)NC(=O)[C@H](Cc2ccccc2)NC(=O)[C@H]([C@@H](C)O)NC(=O)[C@H](CCCCN)NC(=O)[C@H](C(C)C)NC1=O
notes: selected by RaPID mRNA display against ADO; source: synthetic peptide (SPPS)
Kd [5]: 50.9 nM and 50.4 nM and 50.6 nM
Kd [9]: 28.9 nM and 28.6 nM and 31.2 nM

B2: CP6-K4A (peptide)
peptide: {CH2CO}-YIVATFWLGSHRQC
modifications: thioether N-14
notes: the substitution K4A is to be applied to them; Single amino acid substituent of CP6; source: synthetic peptide
Kd [9]: 429 nM and 397 nM and 428 nM

{CH2CO}-YIVKTFW[Dap]([Gly-Ser])GSHRQC (thioether N-14) [CP6-L8d-Gly-Ser]
Kd [8]: 150 nM

{CH2CO}-YIVKTFW[Dap]([Phe-Ser])GSHRQC (thioether N-14) [CP6-L8d-Phe-Ser, listing 2 of 2 here]
Kd [8]: 79 nM

CFPKVLSDDMKKLK
fold increase in KD relative to wild type ADO [6]: < 80 fold
fold increase in KD relative to wild type ADO [7]: < 113 fold
